# Test results taken from patent publication US9717715B2, “Method of combination therapy using an anti-C-Met antibody” (Samsung Electronics Co., Ltd., priority 2013, dated 2017).
# What was measured:
# [1] = system: Akt phosphorylation in Caki-1 cells; test: Akt phosphorylation (phospho-AKT1 Ser473 sandwich ELISA); type: cell-based; conditions: 5 ug/ml, FIG. 8B
# From the text: Cellular processes regulated by Akt include cell proliferation, cell survival, cell size control, and response to nutrient availability, intermediary metabolism, angiogenesis, and tissue invasion. All these processes represent characteristics of cancer and many oncoproteins and tumor suppressors intersect in the Akt pathway, finely regulating cellular functions at the interface of signal transduction and classical metabolic regulation. Thus, as the content of phosphorylated Akt that is an active form increases, the activity of cancer cells increases. Here, the degree of inhibiting Akt phosphorylation by the 4 types of antibodies having improved affinities was evaluated.
# To compare agonism of the 4 types of antibodies having improved affinities, as prepared in Example 5, Caki-1 cells (Korean Cell Line Bank) were used to confirm the degree of Akt phosphorylation. Mouse IgG was used as a negative control, and antibody 5D5 (a known agonist) was used as a positive control.
# 2×10^5 cells/ml of Caki-1 cells were introduced to a 96-well plate, and after 24 hours, each of 5 ug/ml of the antibodies was treated in serum free medium for 30 minutes. Lysis of the cells treated with the antibodies was performed and the degree of Akt phosphorylation was measured using a PathScan phospho-AKT1 (Ser473) chemiluminescent Sandwich ELISA kit (Cell Signaling, cat. no #7134S). […]
# c-Met in MKN45 cells = target: T1, c-Met in MKN45 cells (Homo sapiens, UniProt P08581); test: Degree of degradation of c-Met (total c-Met ELISA); type: cell-based; conditions: 5 ug/ml, 24 hours, FIG. 9B
# T1 construct: MKN45 gastric cancer cells on which c-Met is expressed; endogenous in cells; host or cells: MKN45 gastric cancer cells (JCRB)
# T1 sequence (P08581 25-1390): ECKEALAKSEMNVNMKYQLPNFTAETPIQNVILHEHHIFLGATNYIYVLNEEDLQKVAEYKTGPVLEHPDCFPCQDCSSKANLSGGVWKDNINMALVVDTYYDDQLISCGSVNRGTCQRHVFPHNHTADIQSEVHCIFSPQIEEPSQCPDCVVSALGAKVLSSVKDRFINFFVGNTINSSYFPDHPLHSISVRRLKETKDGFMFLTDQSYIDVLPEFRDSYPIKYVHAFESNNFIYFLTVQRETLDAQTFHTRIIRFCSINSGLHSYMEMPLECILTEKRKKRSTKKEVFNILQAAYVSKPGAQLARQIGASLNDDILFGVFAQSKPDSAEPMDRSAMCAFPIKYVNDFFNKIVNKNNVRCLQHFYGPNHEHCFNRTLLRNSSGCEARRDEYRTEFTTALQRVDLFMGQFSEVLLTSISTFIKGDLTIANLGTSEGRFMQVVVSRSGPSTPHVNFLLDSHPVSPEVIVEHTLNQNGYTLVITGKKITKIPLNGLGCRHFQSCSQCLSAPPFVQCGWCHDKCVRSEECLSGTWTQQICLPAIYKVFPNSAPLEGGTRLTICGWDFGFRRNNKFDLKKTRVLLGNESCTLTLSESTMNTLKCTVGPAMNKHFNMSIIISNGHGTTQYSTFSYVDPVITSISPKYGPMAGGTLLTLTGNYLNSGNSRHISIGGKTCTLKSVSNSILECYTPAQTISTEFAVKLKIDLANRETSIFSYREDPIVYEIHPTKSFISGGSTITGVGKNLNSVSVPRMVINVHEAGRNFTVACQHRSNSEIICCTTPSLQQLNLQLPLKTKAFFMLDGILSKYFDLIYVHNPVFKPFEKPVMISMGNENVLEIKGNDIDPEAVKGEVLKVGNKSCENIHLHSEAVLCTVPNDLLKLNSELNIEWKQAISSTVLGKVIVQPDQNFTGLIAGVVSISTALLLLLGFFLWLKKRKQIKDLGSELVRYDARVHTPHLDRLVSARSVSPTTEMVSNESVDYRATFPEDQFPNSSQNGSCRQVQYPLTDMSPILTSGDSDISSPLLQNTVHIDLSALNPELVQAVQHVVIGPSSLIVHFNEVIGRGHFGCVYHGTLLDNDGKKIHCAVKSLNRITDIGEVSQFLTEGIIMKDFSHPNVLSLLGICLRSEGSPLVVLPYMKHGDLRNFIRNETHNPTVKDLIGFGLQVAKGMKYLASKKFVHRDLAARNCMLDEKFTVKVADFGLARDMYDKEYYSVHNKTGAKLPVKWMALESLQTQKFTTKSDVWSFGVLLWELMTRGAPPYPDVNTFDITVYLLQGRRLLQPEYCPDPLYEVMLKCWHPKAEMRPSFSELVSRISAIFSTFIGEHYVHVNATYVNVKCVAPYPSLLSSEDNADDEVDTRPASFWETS
# Protocol: In order to identify anti-cancer effects of the 4 types of antibodies having improved affinities, as prepared in Example 5, the degree of degradation of c-Met bound to the antibodies was evaluated. A relative total amount of c-Met was obtained by measuring the change in the total amount of c-Met after the antibody binds to c-Met to degrade c-Met via internalization, and thus the efficacy of the antibody was evaluated.
# (§1) MKN45 cells (2×10^5 cells/ml) and each of the antibodies (5 ug/ml) were simultaneously introduced to a 96-well plate and incubated for 24 hours. Then, lysis of the cells treated with antibodies was performed and the change in the total amount of c-Met was measured using a Human total HGF R/c-Met ELISA KIT (R&D systems, DYC358) and analyzed.
# as §1, with “In order to identify anti-cancer effects of the 3 types of antibodies having improved affinities, as prepared in Example 11, the degree of degradation of c-Met bound to the antibody was evaluated. MKN45” for “MKN45”, “and a” for “and the”, “change of” for “change in”
molecule,measurement,setting,value
L3-11Y: light chain SEQ ID NO: 73 (serine 27e replaced with tryptophan) and the heavy chain of huAbF46-H4-A1 (IgG2 Fc) (antibody) heavy: EVQLVESGGGLVQPGGSLRLSCAASGFTFTDYYMSWVRQAPGKGLEWLGFIRNKANGYTTEYSASVKGRFTISRDNSKNTLYLQMNSLRAEDTAVYYCARDNWFAYWGQGTLVTVSSASTKGPSVFPLAPCSRSTSESTAALGCLVKDYFPEPVTVSWNSGALTSGVHTFPAVLQSSGLYSLSSVVTVPSSNFGTQTYTCNVDHKPSNTKVDKTVERKCCVECPPCPAPPVAGPSVFLFPPKPKDTLMISRTPEVTCVVVDVSHEDPEVQFNWYVDGVEVHNAKTKPREEQFNSTFRVVSVLTVVHQDWLNGKEYKCKVSNKGLPAPIEKTISKTKGQPREPQVYTLPPSREEMTKNQVSLTCLVKGFYPSDIAVEWESNGQPENNYKTTPPMLDSDGSFFLYSKLTVDKSRWQQGNVFSCSVMHEALHNHYTQKSLSLSPGK light: DIQMTQSPSSLSASVGDRVTITCKSSQSLLAWGNQNNYLAWYQQKPGKAPKMLIIWASTRVSGVPSRFSGSGSGTDFTLTISSLQPEDFATYYCQQSYSRPYTFGQGTKVEIKRTVAAPSVFIFPPSDEQLKSGTASVVCLLNNFYPREAKVQWKVDNALQSGNSQESVTEQDSKDSTYSLSSTLTLSKADYEKHKVYACEVTHQGLSSPVTKSFNRGEC,activity of Akt phosphorylation inhibition compared to huAbF46-H4-A1 (IgG2 Fc),[1],equal or higher activity of Akt phosphorylation inhibition
same,activity of c-Met degradation compared to huAbF46-H4-A1 (IgG2 Fc),c-Met in MKN45 cells,approximately equal activity of c-Met degradation
